Results: paper PMC10368747, “Zinc-finger BED domains drive the formation of the active Hermes transpososome by asymmetric DNA binding”
Several values for one entry are separate records, joined by “and”; a condition that tells them apart may be missing. Equal values may be shown once. Each block holds one molecule with its values, some of them ahead of it.

Legend:
[1] = biological target: full-length Hermes transposase (with the mutations Q2E and K128G) (Musca domestica) (UniProt Q25442); assay: mass photometry; Hermes (10 µM) mixed with 2.5, 5 or 10 µM left-end DNAs, dialysed to 150 mM NaCl, 25 mM HEPES.Na pH 7.5, 0.3 mM TCEP, diluted 50 and 100 times; composition by subtracting the mass of the hexamer or octamer
[2] = biological target: full-length Hermes transposase (with the mutations Q2E and K128G) (Musca domestica) (UniProt Q25442); assay: cryo-EM structure; LE-LE transpososome: Hermes with 8 + LE-TIR + 30 DNA, 8:2 protein-to-DNA, 150 mM NaCl, 25 mM HEPES.Na pH 7.5, purified by SEC
[3] = biological target: full-length Hermes transposase (with the mutations Q2E and K128G) (Musca domestica) (UniProt Q25442); assay: as above; remark: listed apart in the source
[4] = biological target: full-length Hermes transposase (with the mutations Q2E and K128G) (Musca domestica) (UniProt Q25442); assay: SEC + other: mass photometry; purified Hermes transposase alone, dialysed against 25 mM HEPES.Na pH 7.5, 0.3 mM TCEP with 0.5, 0.25 or 0.15 M NaCl; Superose 6 SEC; mass photometry at 50, 65 and 30 nM; higher salt favours the octamer, lower salt the hexamer
[5] = biological target: full-length Hermes transposase (with the mutations Q2E and K128G) (Musca domestica) (UniProt Q25442); assay: cryo-EM structure; RE-RE transpososome: Hermes with 8 + RE-TIR + 30 DNA, 8:2 protein-to-DNA, 150 mM NaCl, 25 mM HEPES.Na pH 7.5, purified by SEC
Hermes BED domain [6] = biological target: T1, Hermes BED domain (Musca domestica, UniProt Q25442 1-78); assay: EMSA; two BED per DNA, cooperative; 0.5 uM ran17 competitor; value assigned by the peer review file; BED EMSA: 25 mM HEPES.Na pH 7.5, 150 mM NaCl, 0.3 mM TCEP, 1 uM DNA, 0.5 uM ran17, 0-10 uM BED, 1 h 4 C then 15 min RT; 15% PAGE 0.5X TBE; Hermes SEC at 150 mM; conditions: protein: recombinant; tags: untagged; label: 5'-6FAM top strand (EMSA, 10% of the DNA); blunt
T1 sequence: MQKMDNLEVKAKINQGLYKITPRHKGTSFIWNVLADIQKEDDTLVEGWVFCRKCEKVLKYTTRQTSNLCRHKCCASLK

Hermes BED domain [7] = biological target: T1, Hermes BED domain; assay: EMSA; one BED per DNA; Kd in Fig. 6c is 1.7 or 2.8 uM, assignment not resolvable from text; BED EMSA: 25 mM HEPES.Na pH 7.5, 150 mM NaCl, 0.3 mM TCEP, 1 uM DNA, 0.5 uM ran17, 0-10 uM BED, 1 h 4 C then 15 min RT; 15% PAGE 0.5X TBE; Hermes SEC at 150 mM; conditions: protein: recombinant; tags: untagged; label: 5'-6FAM top strand (EMSA); blunt

stoichiometry N [1]: 6 and 8
stoichiometry N [2]: 6
stoichiometry N [3]: 8
stoichiometry N [4]: 6 monomers and 8 monomers
stoichiometry N [5]: 8
Molecule: full-length Hermes transposase (with the mutations Q2E and K128G) (from UniProt Q25442 1-612) (enzyme)

B1: LE11-27 (dsDNA)
DNA 1: CAACAAGTGGCTTATTT
DNA 2: AAATAAGCCACTTGTTG
Kd (Hermes BED domain [6]): 2500 ± 200 nM

B2: LE11-27mut (dsDNA)
DNA 1: CAACAAGTGTTTTATTT
DNA 2: AAATAAAACACTTGTTG
binding result (Hermes BED domain [7]): binds
